Results on one substance are retold here after PMC5458251.

The assay addresses SEPT9_i1-YN (split-YFP chimera: septin 9 isoform 1 with EE tag, linker and N-terminal YFP fragment on its C-terminus) (human) (UniProt Q9UHD8). Briefly: split reporter (BiFC, NanoBiT); split YFP (YN/YC) in live PC-3 cells, transient co-transfection with 10-fold more HIF-1α plasmid than SEPT9_i1 plasmid, confocal imaging 48 h after transfection; cells treated overnight with 250 μM CoCl2, 100 μM DBM, DBM with 1 μM 17-AAG or 150 μM FCF, or 0.01% DMSO.
UniProt Q9UHD8, sequence (Q9UHD8 whole entry, change not shown, the tested form may be a part, canonical isoform): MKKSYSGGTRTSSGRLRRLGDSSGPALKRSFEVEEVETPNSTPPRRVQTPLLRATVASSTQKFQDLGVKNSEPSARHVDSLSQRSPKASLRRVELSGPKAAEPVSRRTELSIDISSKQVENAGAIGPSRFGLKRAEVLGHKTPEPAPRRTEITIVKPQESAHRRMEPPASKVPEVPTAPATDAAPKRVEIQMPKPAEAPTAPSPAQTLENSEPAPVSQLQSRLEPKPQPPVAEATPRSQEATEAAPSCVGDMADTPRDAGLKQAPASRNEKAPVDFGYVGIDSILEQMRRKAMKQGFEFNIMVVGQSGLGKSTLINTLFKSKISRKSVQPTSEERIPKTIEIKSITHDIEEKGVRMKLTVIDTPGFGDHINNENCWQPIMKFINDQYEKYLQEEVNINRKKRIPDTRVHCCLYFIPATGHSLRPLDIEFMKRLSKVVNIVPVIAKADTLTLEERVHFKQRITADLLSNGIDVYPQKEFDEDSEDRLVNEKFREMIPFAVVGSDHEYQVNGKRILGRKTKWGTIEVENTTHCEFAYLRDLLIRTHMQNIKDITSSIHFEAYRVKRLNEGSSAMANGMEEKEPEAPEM

“YC-HIF-1α-DPM (YC chimera of double proline mutated HIF-1α) (from UniProt Q16665 1-826) (natural protein)”: the fold BiFC signal against YC-ΔHLH-HIF-1α with SEPT9 i1-YN was found to be 11 fold.
